Reference: publication PMC6225287 (2018)

Biological target: FGF-2 (Homo sapiens, UniProt P09038)
Experiment: SPR

Sequence of FGF-2 (P09038 143-288): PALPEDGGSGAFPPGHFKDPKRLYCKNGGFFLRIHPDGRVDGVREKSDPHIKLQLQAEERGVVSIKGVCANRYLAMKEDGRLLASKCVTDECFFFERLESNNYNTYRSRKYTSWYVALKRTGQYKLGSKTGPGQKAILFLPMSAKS

- Kd: 28 µM
B1: DD15 peptide (thrombospondin-1) type III repeats (peptide)
chain: QEDYDKDGIGDACDD
